In US9187525B2, “Methods of treating ophthalmic diseases using NPR-B agonists” (Shire Orphan Therapies GmbH, dated 2015):
Numbered stars: 1 amine (or outer) side, 2 acyl side, 3 side chain; on linkers, the order of the positions; unused ones are H or OH. Square brackets hold non-standard residues; d marks the D form. Ends that are not written are not given here. * marks the point of attachment. 5119 = (1R,2R)-ethyl 2-aminocyclohexanecarboxylate, CCOC(=O)[C@@H]1CCCC[C@H]1N*; 5116 = (1S,2R)-2-aminocyclohexanecarboxamide, NC(=O)[C@H]1CCCC[C@H]1N*; Pro(trans-4-NH2) = O=C([C@@H]1C[C@@H](N[*:3])CN1[*:1])[*:2]; Sni = (S)-nipecotic acid, O=C([C@H]1CCCN([*:1])C1)[*:2]; cPrCO(1-aminomethyl) = O=C(C1(CN[*:1])CC1)[*:2]; dTle = CC(C)(C)[C@@H](N)C(=O)O; NMeL = CN[C@@H](CC(C)C)C(=O)O; Chg = N[C@H](C(=O)O)C1CCCCC1; NMeK = CN[C@@H](CCCCN)C(=O)O; orn(Me2) = not defined here; Nle = CCCC[C@H](N)C(=O)O; Octanoyl = CCCCCCCC(=O)*; dAbu = CC[C@@H](N)C(=O)O; 1270 = not defined here; 1859 = not defined here; 1860 = not defined here; 1906 = not defined here; 1934 = not defined here; 2797 = not defined here; 3791 = not defined here; 3806 = not defined here; 4956 = not defined here; 504 = not defined here; 559 = not defined here; 565 = not defined here; 873 = not defined here; 933 = not defined here; Che = not defined here; ala = not defined here; leu = not defined here; Ac3c = NC1(C(=O)O)CC1; Occ = octanoic acid

T1: natriuretic peptide receptor-B (human)
T1 chain: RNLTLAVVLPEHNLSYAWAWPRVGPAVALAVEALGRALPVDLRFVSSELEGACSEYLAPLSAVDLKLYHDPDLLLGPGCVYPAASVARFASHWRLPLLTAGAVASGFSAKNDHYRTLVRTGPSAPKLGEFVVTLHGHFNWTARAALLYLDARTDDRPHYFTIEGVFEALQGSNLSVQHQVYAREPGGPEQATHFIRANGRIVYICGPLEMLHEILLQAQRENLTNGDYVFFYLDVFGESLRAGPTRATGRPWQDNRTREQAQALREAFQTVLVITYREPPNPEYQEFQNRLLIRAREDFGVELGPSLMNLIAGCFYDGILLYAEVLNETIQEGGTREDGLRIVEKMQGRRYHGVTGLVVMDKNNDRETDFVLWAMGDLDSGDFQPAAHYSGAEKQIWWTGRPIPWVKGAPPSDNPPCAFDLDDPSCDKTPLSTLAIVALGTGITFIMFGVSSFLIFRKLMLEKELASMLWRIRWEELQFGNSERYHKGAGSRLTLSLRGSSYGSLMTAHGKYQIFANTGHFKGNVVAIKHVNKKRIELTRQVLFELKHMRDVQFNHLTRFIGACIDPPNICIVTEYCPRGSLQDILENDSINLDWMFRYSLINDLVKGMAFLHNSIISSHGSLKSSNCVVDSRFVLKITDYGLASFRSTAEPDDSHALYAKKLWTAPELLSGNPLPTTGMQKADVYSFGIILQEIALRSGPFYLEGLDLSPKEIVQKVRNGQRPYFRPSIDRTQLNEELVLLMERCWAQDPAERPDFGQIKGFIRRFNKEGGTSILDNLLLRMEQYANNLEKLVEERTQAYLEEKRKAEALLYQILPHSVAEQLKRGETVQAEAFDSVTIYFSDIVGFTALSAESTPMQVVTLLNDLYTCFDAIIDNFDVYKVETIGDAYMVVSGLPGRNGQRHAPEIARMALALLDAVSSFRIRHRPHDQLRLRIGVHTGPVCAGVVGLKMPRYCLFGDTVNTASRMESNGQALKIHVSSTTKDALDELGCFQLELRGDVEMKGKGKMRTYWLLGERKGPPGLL


Biological target: T1, natriuretic peptide receptor-B
Assay: cell-based or functional assay

Row | Binder | EC50 group, cGMP in GTM-3 cells
1 | 933-AFGLKLDRI-NH2 (not fully specified (some residues); printed as 933-ala-Phe-Gly-Leu-Lys-Leu-Asp-Arg-Ile-NH2; reading uncertain) [JAL-0786] | ≤ 15 µM
2 | Octanoyl-[dA][dA]FGLKIDRI-NH2 [JAL-0770] | ≤ 15 µM
3 | Octanoyl-AAFGL[NMeK]LDRI-NH2 (not fully specified (some residues); printed as Occ-ala-ala-Phe-Gly-Leu-Nmk-Leu-Asp-Arg-Ile-) [JAL-0782] | ≤ 15 µM
4 | [Occ][Sni]F[orn(Me2)]L[Pro(trans-4-NH2)][NMeL]DRI-NH2 (reading uncertain; also: printed as Occ-Sni-Phe-orn(Me2)-Leu-Tap-Nml-Asp-Arg-Ile-NH2) [JAL-1936] | ≤ 1 µM
5 | 1270-AFGLKLDRI-NH2 (not fully specified (some residues); printed as 1270-ala-Phe-Gly-Leu-Lys-Leu-Asp-Arg-Ile-NH2; reading uncertain) [JAL-0787] | ≤ 15 µM
6 | Octanoyl-[ala][ala]FGLKLDR[5116] (reading uncertain; also: printed as Occ-ala-ala-Phe-Gly-Leu-Lys-Leu-Asp-Arg-5116) [JAL-0825] | ≤ 15 µM
7 | Octanoyl-[dA][dA]FGLK[NMeL]DRI-NH2 [JAL-0776] | ≤ 15 µM
8 | Octanoyl-AAFGLKLDR[504] (not fully specified (some residues); printed as Occ-ala-ala-Phe-Gly-Leu-Lys-Leu-Asp-Arg-504; reading uncertain) [JAL-0790] | ≤ 15 µM
9 | [Occ][cPrCO(1-aminomethyl)]FGLKLDRI-NH2 [JAL-0760] | ≤ 15 µM
10 | XAAFGLKVDRI (not fully specified (residue 1, C-terminus); printed as Occ-ala-ala-Phe-Gly-Leu-Lys-Val-Asp-Arg-Ile-NH2) [JAL-0771] | ≤ 15 µM
11 | Octanoyl-[dA][dA]FGLK[Chg]DRI-NH2 [JAL-0772] | ≤ 15 µM
12 | Octanoyl-[dAbu]FGLKLDRI-NH2 [JAL-0762] | ≤ 15 µM
13 | Octanoyl-[ala][ala]FGLKLDR[5119] (reading uncertain; also: printed as Occ-ala-ala-Phe-Gly-Leu-Lys-Leu-Asp-Arg-5119) [JAL-0826] | ≤ 5 µM
14 | Octanoyl-AAFGLKLDR[873] (not fully specified (some residues); printed as Occ-ala-ala-Phe-Gly-Leu-Lys-Leu-Asp-Arg-873; reading uncertain) [JAL-0824] | ≤ 15 µM
15 | Octanoyl-[dA][dA]FGLK[Nle]DRI-NH2 [JAL-0775] | ≤ 15 µM
16 | Octanoyl-AAFGLKLDR[1934] (not fully specified (some residues); printed as Occ-ala-ala-Phe-Gly-Leu-Lys-Leu-Asp-Arg-1934; reading uncertain) [JAL-0799] | ≤ 5 µM
17 | [Occ][Sni]F[leu]LX[NMeL]DRI-NH2 (not fully specified (residue 6); printed as Occ-Sni-Phe-leu-Leu-Tap(Asp(-))-Nml-Asp-Arg-Ile-NH2) [JAL-1935] | ≤ 5 µM

Row | Binder | EC50 group, cGMP in GTM-3 cells
18 | Octanoyl-[dS]FGLKLDRI-NH2 [JAL-0763] | ≤ 15 µM
19 | Octanoyl-AAFGLKLDR[Che] (not fully specified (some residues); printed as Occ-ala-ala-Phe-Gly-Leu-Lys-Leu-Asp-Arg-Che; reading uncertain) [JAL-0797] | ≤ 5 µM
20 | Octanoyl-[dA][dA]FGLKLDRI-NH2 (not fully specified (some residues); printed as Occ-ala-ala-Phe-Gly-Leu-Lys-leu-Asp-Arg-Ile-NH2) [JAL-0769] | ≤ 15 µM
21 | Octanoyl-AAFGLKLDR[559] (not fully specified (some residues); printed as Occ-ala-ala-Phe-Gly-Leu-Lys-Leu-Asp-Arg-559; reading uncertain) [JAL-0791] | ≤ 15 µM
22 | Octanoyl-[dA][dA]FGLPLDRI-NH2 [JAL-0781_01] | ≤ 5 µM
23 | Octanoyl-AAFGLKLDR[1860] (not fully specified (some residues); printed as Occ-ala-ala-Phe-Gly-Leu-Lys-Leu-Asp-Arg-1860; reading uncertain) [JAL-0789] | ≤ 5 µM
24 | Octanoyl-AAFGLKLDR[3791] (not fully specified (some residues); printed as Occ-ala-ala-Phe-Gly-Leu-Lys-Leu-Asp-Arg-3791; reading uncertain) [JAL-0792] | ≤ 15 µM
25 | Octanoyl-[dA][dA]FGLKLDR[2797] (reading uncertain; also: printed as Occ-ala-ala-Phe-Gly-Leu-Lys-Leu-Asp-Arg-2797) [JAL-0754] | ≤ 5 µM
26 | [Occ][dTle]FGLKLDRI-NH2 [JAL-0758] | ≤ 15 µM
27 | 4956-AFGLKLDRI-NH2 (not fully specified (some residues); printed as 4956-ala-Phe-Gly-Leu-Lys-Leu-Asp-Arg-Ile-NH2; reading uncertain) [JAL-0788] | ≤ 15 µM
28 | Octanoyl-[dA][dA]FGLKLDR[565] (reading uncertain; also: printed as Occ-ala-ala-Phe-Gly-Leu-Lys-Leu-Asp-Arg-565) [JAL-0752] | ≤ 5 µM
29 | Octanoyl-AAFGLKLDR[1906] (not fully specified (some residues); printed as Occ-ala-ala-Phe-Gly-Leu-Lys-Leu-Asp-Arg-1906; reading uncertain) [JAL-0801] | ≤ 5 µM
30 | Octanoyl-[dA][dA]FGLKLDR[3806] (reading uncertain; also: printed as Occ-ala-ala-Phe-Gly-Leu-Lys-Leu-Asp-Arg-3806) [JAL-0751] | ≤ 15 µM
31 | Octanoyl-[dV]FGLKLDRI-NH2 [JAL-0756] | ≤ 15 µM
32 | Octanoyl-AAFGLKLDR[1859] (not fully specified (some residues); printed as Occ-ala-ala-Phe-Gly-Leu-Lys-Leu-Asp-Arg-1859; reading uncertain) [JAL-0798] | ≤ 15 µM
33 | [Occ][Ac3c]FGLKLDRI-NH2 [JAL-0761] | ≤ 15 µM
